Values of other authors in article PMC9776232.

Target: Amyloid beta (Homo sapiens) (UniProt P05067)
Sequence (P05067 672-711): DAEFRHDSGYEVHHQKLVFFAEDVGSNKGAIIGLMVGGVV

Chain of L-PGDS (P41222 23-190): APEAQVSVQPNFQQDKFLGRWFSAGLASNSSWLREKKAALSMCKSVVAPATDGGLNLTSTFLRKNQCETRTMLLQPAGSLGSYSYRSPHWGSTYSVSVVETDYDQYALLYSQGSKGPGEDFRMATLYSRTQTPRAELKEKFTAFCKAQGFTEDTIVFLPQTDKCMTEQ

Kd: 34 nM
Substance: L-PGDS (from UniProt P41222)
